The labels stand for the following.
B1: LIFR CBMI-Ig-like-CBMII (VPRVVAID)-gp130 CBM (ELDME) heterodimeric Fc fusion (Fc fusion)
chain 1: QKKGAPHDLKCVTNNLQVWNCSWKAPSGTGRGTDYEVCIENRSRSCYQLEKTSIKIPALSHGDYEITINSLHDFGSSTSKFTLNEQNVSLIPDTPEILNLSADFSTSTLYLKWNDRGSVFPHRSNVIWEIKVLRKESMELVKLVTHNTTLNGKDTLHHWSWASDMPLECAIHFVEIRCYIDNLHFSGLEEWSDWSPVKNISWIPDSQTKVFPQDKVVPVGSDITFCCVSQEKVLSALIGRTDCPLIHLDGENVAIKVRNVSASASSGTNVVFITEDDIFGTVIFAGYPPDTPQQLNCETHDLKEIICSWNPGRVTALVGPRATSYTLVESFSGKYVRLKRAEAPTNESYQLLFQMLPNQEIYNFTLNAHNPLGRSQSTILVNITEKVYPHTPTSFKVKDINSTAVKLSWHLPGNFAKINFLCEIEIKKSNSVQEQRNVTIKGVENSSYLVALDKLNPYTLYTFRIRCSTETFWKWSKWSNKKQHLTTEASGSGSGSDKTHTCPPCPAPELLGGPSVFLFPPKPKDTLMISRTPEVTCVVVDVSHEDPQVKFNWYVDGVQVHNAKTKPREQQYNSTYRVVSVLTVLHQNWLDGKEYKCKVSNKALPAPIEKTISKAKGQPREPQVYTLPPSREEMTKNQVSLWCLVKGFYPSDIAVEWESNGQPENNYKTTPPVLDSDGSFFLYSKLTVDKSRWQQGNVFSCSVMHEALHNHYTQKSLSLSPGK
chain 2: LPPEKPKNLSCIVNEGKKMRCEWDRGRETHLETNFTLKSEWATHELADCKAKRDTPTSCTVDYSTVYFVNIEVWVEAENALGKVTSDHINFDPVDKVKPNPPHNLSVINSEELSSILKLTWTNPSIKSVMILKYNIQYRTKDASTWSQIPPEDTASTRSSFTVQDLKPFTEYVFRIRCMKEDGEGYWSDWSEEASGITYEDGSGSGSDKTHTCPPCPAPELLGGPSVFLFPPKPKDTLMISRTPEVTCVVVDVSHEDPQVKFNWYVDGVQVHNAKTKPREQQYNSTYRVVSVLTVLHQNWLDGKEYKCKVSNKALPAPIEKTISKAKGQPREPQVYTLPPSREEMTKNQVSLSCAVKGFYPSDIAVEWESNGQPENNYKTTPPVLDSDGSFFLVSKLTVDKSRWQQGNVFSCSVMHEALHNHYTQKSLSLSPGK
notes: also called LIFR-gp130 heterodimeric Fc; LIFR-gp130 Heterodimeric Fc (Eng.)
B2: wild-type human LIFR displayed on the surface of yeast (receptor)
chain: QKKGAPHDLKCVTNNLQVWNCSWKAPSGTGRGTDYEVCIENRSRSCYQLEKTSIKIPALSHGDYEITINSLHDFGSSTSKFTLNEQNVSLIPDTPEILNLSADFSTSTLYLKWNDRGSVFPHRSNVIWEIKVLRKESMELVKLVTHNTTLNGKDTLHHWSWASDMPLECAIHFVEIRCYIDNLHFSGLEEWSDWSPVKNISWIPDSQTKVFPQDKVILVGSDITFCCVSQEKVLSALIGHTNCPLIHLDGENVAIKIRNISVSASSGTNVVFTTEDNIFGTVIFAGYPPDTPQQLNCETHDLKEIICSWNPGRVTALVGPRATSYTLVESFSGKYVRLKRAEAPTNESYQLLFQMLPNQEIYNFTLNAHNPLGRSQSTILVNITEKVYPHTPTSFKVKDINSTAVKLSWHLPGNFAKINFLCEIEIKKSNSVQEQRNVTIKGVENSSYLVALDKLNPYTLYTFRIRCSTETFWKWSKWSNKKQHLTTEAS
notes: also called LIFR wild-type (WT); wild-type LIFR
B3: LIFR CBMI-Ig-like-CBMII wild-type Fc fusion homodimer (Fc fusion)
chain: B2 chain
notes: Homodimer through the Fc; The engineered counterparts use a 3x GS linker and a human IgG1 Fc; also called LIFR-WT-Fc; LIFR WT Fc; not shown: linker and Fc domain
B4: PRVAID (receptor)
yeast-displayed receptor fragment: B2 chain with L218P, H240R, I257V, V262A, T273I, N277D
B5: PID (receptor)
yeast-displayed receptor fragment: B2 chain with L218P, I260V, T273I, N277D
B6: PSVID (receptor)
yeast-displayed receptor fragment: B2 chain with L218P, N242S, I260V, T273I, N277D
notes: 5 mutations, all marked
B7: PVAID (receptor)
yeast-displayed receptor fragment: B2 chain with L218P, I257V, V262A, T273I, N277D
notes: 5 mutations, all marked
B8: VPDAID (receptor)
yeast-displayed receptor fragment: B2 chain with I217V, L218P, N242D, V262A, T273I, N277D
notes: 6 mutations, all marked
B9: VPSID (receptor)
yeast-displayed receptor fragment: B2 chain with I217V, L218P, N242S, T273I, N277D
notes: 5 mutations, all marked
B10: PAID (receptor)
yeast-displayed receptor fragment: B2 chain with L218P, V262A, T273I, N277D
notes: 4 mutations, all marked
B11: human leukemia inhibitory factor (LIF), soluble (ligand)
chain: not shown
notes: also called human LIF; soluble human LIF
B12: wild-type human gp130 CBM domain displayed on the surface of yeast (receptor)
chain: LPPEKPKNLSCIVNEGKKMRCEWDRGRETHLETNFTLKSEWATHKFADCKAKRDTPTSCTVDYSTVYFVNIEVWVEAENALGKVTSDHINFDPVYKVKPNPPHNLSVINSEELSSILKLTWTNPSIKSVIILKYNIQYRTKDASTWSQIPPEDTASTRSSFTVQDLKPFTEYVFRIRCMKEDGKGYWSDWSEEASGITYED
notes: also called gp130 wild-type (WT); wild-type gp130
B13: ELRDM (receptor)
yeast-displayed receptor fragment: B12 chain with K45E, F46L, K83R, Y95D, I130M
notes: 5 mutations, all marked
B14: ELDSM (receptor)
yeast-displayed receptor fragment: B12 chain with K45E, F46L, Y95D, N100S, I130M
notes: 5 mutations, all marked
B15: EDE (receptor)
yeast-displayed receptor fragment: B12 chain with K45E, Y95D, K184E
notes: 3 mutations, all marked
B16: 8M (receptor)
yeast-displayed receptor fragment: B12 chain with E4K, K5R, N14D, K45E, F46L, K83R, Y95D, N100S
notes: 8 mutations, all marked; also called 8M (Rnd 1); E4K-K5R-N14D-K45E-F46L-K83R-Y95D-N100S

The target in test [1] is B12. In words: yeast-displayed receptor, no LIF added, anti-Fc detection by flow cytometry. Background: Flow cytometry measures light scatter and fluorescence of single cells or particles in a stream.
Test [2] deals with B2. The description is as above.
The target in test [3] is B11. In words: yeast surface display, flow cytometry; soluble human LIF titrated (0.001 to 100 nM), detected with a fluorescent antibody. As to the method: (§1) Binding to human LIF was measured via fluorescent antibody detection using flow cytometry.
Results for LIFR wild-type (WT) (circles), the “PDD” variant (L218P-N42D-N277D) (squares), and the […] variant (mutations in FIG. 4, panel A) (triangles) are shown.

Test [4] concerns the target B11. In words: yeast surface display, flow cytometry; score from summed fluorescence at 10 pM and 100 pM human LIF, normalized to wild-type and to expression.
Test [5] addresses B11. In words: KinExA with soluble human LIF; inhibitor titrated. As to the method: (§2) Binding of the purified LIF inhibitors to soluble LIF was tested using KinExA. Shown in FIG. 10 are binding results for: (1) a homodimer having a WT LIFR CBMI-Ig-like-CBMII Fc fusion as each monomer; (2) a homodimer having LIFR […] Fc as each monomer;
(In general: Kinetic exclusion samples the free partner from a solution-phase mixture.)

Test [6] has as its target B3. In words: KinExA with soluble human LIF; KD calculated by the KinExA software. As to the method: as §2
The target of test [7] is B11. The test can be described thus: yeast surface display, flow cytometry; Score column of the table of sorted gp130 CBM variants (the filing gives 100 pM and 1 nM human LIF for the gp130 binding scores).
Test [8] deals with B11. The test can be described thus: yeast surface display, flow cytometry; soluble human LIF titrated (0.01 to 1000 nM), detected with a fluorescent antibody. As to the method:
as §1
Results for gp130 wild-type (WT) (circles), the “8M” variant (E4K-K5R-N14D-K45E-F46L-K83R-Y95D-N100S) (squares), and the ELDME variant (mutations in FIG. 4, panel A) (triangles) are shown.

Where a chain is given by its changes, count along the chain named. Numbers in names are those of the source.

With B1, the binding result in test [1] and in test [2] was “no binding” in each case.
With B2, the “EC50 (read off the curve)” value in test [3] was about 1 nM. Further, the “Score (normalized binding score)” value in test [4] is 1.32.
For the molecule B3, in test [5], the “EC50 (read off the curve)” value was about 1 nM.
For the molecule B4, the “Score (normalized binding score)” value in test [4] came to 16.9.
As to B5, in test [4], the “Score (normalized binding score)” value is 12.2.
Consider B6, for which, in test [4], the “Score (normalized binding score)” value was determined as 13.4.
In the case of B7, in test [4], the “Score (normalized binding score)” value is 15.6.
Still for that read-out and setting: under B8 stands 14.4.
For the molecule B9, the “Score (normalized binding score)” value in test [4] stood at 13.2.
With B10, the “Score (normalized binding score)” value in test [4] is 13.3.
B11: the equilibrium dissociation constant (Kd) in test [6] is 1.09 nM.
Regarding B12, in test [7], the “Score (binding score)” value was found to be 1.03.
With B13, in test [7], the “Score (binding score)” value is 22.1.
B14: the “Score (binding score)” value in test [7] was 21.9.
As to B15, the “Score (binding score)” value in test [7] was found to be 23.
Take B16: the “Score (binding score)” value in test [7] amounted to 16. In addition, the “EC50 (read off the curve)” value in test [8] was about 10 nM.

For orientation: EC50 (read off the curve) means the midpoint of the concentration-response curve. Broadly, the Kd is the constant that tells how readily two partners part at equilibrium.

The values are drawn from patent US20210300992A1 (Stanford University, published 2021).
